Our source for the binding signal values is article PMC11417369, “DNA sequence and chromatin differentiate sequence-specific transcription factor binding in the human malaria parasite Plasmodium falciparum”.

T1: AP2-LT D1 (Plasmodium falciparum, UniProt Q8IAM1 2520-2577)
T1 sequence: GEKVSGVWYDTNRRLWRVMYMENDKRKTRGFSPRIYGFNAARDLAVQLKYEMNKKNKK

T2: PF3D7_0420300 D1 (Plasmodium falciparum, UniProt Q8I1N6 1956-2015)
T2 sequence: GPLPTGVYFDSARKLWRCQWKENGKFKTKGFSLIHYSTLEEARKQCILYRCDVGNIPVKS

B1: CACACA_negctrl_site917 (dsDNA)
DNA 1: ATTTCTATAAAAATAATCTACATTTTTTTTTTTTTT
DNA 2: AAAAAAAAAAAAAATGTAGATTATTTTTATAGAAAT
B2: CACACA_negctrl_site1516 (dsDNA)
DNA 1: TAACCAAAAAAAAATATTTAAAATAAATATATATAT
DNA 2: ATATATATATTTATTTTAAATATTTTTTTTTGGTTA
B3: CACACA_site8115 (dsDNA)
DNA 1: AGAAAATACACGCATACACACACACCCACCCACATA
DNA 2: TATGTGGGTGGGTGTGTGTGTATGCGTGTATTTTCT
B4: CACACA_negctrl_site1631 (dsDNA)
DNA 1: TTTTAATTAAATACAAAAAAAAAAAAAAAAAAAAAA
DNA 2: TTTTTTTTTTTTTTTTTTTTTTGTATTTAATTAAAA
B5: CACACA_site7149 (dsDNA)
DNA 1: CCCCCCCACGAACACACACACATACATACCACATAT
DNA 2: ATATGTGGTATGTATGTGTGTGTGTTCGTGGGGGGG
B6: CACACA_negctrl_site1662 (dsDNA)
DNA 1: TTATTCAGAAAAAAAAAAAAAAAAAAAAAAAAAAAA
DNA 2: TTTTTTTTTTTTTTTTTTTTTTTTTTTTCTGAATAA
B7: CACACA_site367 (dsDNA)
DNA 1: CACCCACCCAGACACACACACACACCCCCACCCATA
DNA 2: TATGGGTGGGGGTGTGTGTGTGTGTCTGGGTGGGTG
B8: CACACA_negctrl_site1463 (dsDNA)
DNA 1: TGTTTCTGCTCTGGACATTTTTAAAAAAGGGAAAGC
DNA 2: GCTTTCCCTTTTTTAAAAATGTCCAGAGCAGAAACA
B9: CACACA_negctrl_site593 (dsDNA)
DNA 1: TAATTTTTGTAAACAGTCATGGATTCAAAAAAAAAA
DNA 2: TTTTTTTTTTGAATCCATGACTGTTTACAAAAATTA
B10: CACACA_negctrl_site1634 (dsDNA)
DNA 1: TTGGTAAATATATTTTGAATATAAGAAATATAGACG
DNA 2: CGTCTATATTTCTTATATTCAAAATATATTTACCAA
B11: CACACA_negctrl_site1242 (dsDNA)
DNA 1: TATTATTGTCTTTCAAAAAAAAAAAAAAAAAAAAAA
DNA 2: TTTTTTTTTTTTTTTTTTTTTTGAAAGACAATAATA
B12: CACACA_negctrl_site737 (dsDNA)
DNA 1: TTTTTAATTCAAAAAATAATATATTATATTTCAAAT
DNA 2: ATTTGAAATATAATATATTATTTTTTGAATTAAAAA
B13: CACACA_negctrl_site1330 (dsDNA)
DNA 1: TAATAAATTCAAAACATAAAAAGGAAAAAAAAAAAA
DNA 2: TTTTTTTTTTTTCCTTTTTATGTTTTGAATTTATTA
B14: CACACA_negctrl_site676 (dsDNA)
DNA 1: TATTTATTGTGATACTTATATTACTTAATGATTAAA
DNA 2: TTTAATCATTAAGTAATATAAGTATCACAATAAATA
B15: CACACA_site8688 (dsDNA)
DNA 1: AAAACACGCGGACACACACACACACCCACCCATATA
DNA 2: TATATGGGTGGGTGTGTGTGTGTGTCCGCGTGTTTT
B16: CACACA_negctrl_site1518 (dsDNA)
DNA 1: AAGGGAAAATAATAAAAGAAAAAGAAAAAAAAAAAA
DNA 2: TTTTTTTTTTTTCTTTTTCTTTTATTATTTTCCCTT
B17: CACACA_negctrl_site149 (dsDNA)
DNA 1: TCTTATTCAAACGTAAAACGAAGAAGAAAAAAAAAA
DNA 2: TTTTTTTTTTCTTCTTCGTTTTACGTTTGAATAAGA
B18: CACACA_negctrl_site12 (dsDNA)
DNA 1: TTCTTCTAATCCTTTTATCTCATTAAAAAAATATAA
DNA 2: TTATATTTTTTTAATGAGATAAAAGGATTAGAAGAA
B19: CACACA_negctrl_site43 (dsDNA)
DNA 1: TTCTTAATTCATACCATCAAAACATTTATTCATATC
DNA 2: GATATGAATAAATGTTTTGATGGTATGAATTAAGAA
B20: CACACA_negctrl_site1460 (dsDNA)
DNA 1: TATTTTACATAAAAGAAAAAAAAAAAAAAAAAAAAA
DNA 2: TTTTTTTTTTTTTTTTTTTTTCTTTTATGTAAAATA
B21: CACACA_negctrl_site1356 (dsDNA)
DNA 1: TGTTTAACACATGTTTCAAACAAAAAAAAAAAGACA
DNA 2: TGTCTTTTTTTTTTTGTTTGAAACATGTGTTAAACA
B22: CACACA_site3850 (dsDNA)
DNA 1: TAAAATAAAACAAACACACACACACCCCCACAAAAA
DNA 2: TTTTTGTGGGGGTGTGTGTGTGTTTGTTTTATTTTA
B23: CACACA_site2303 (dsDNA)
DNA 1: CATATTCCCCCCCACACACACACACCCATACATACC
DNA 2: GGTATGTATGGGTGTGTGTGTGTGGGGGGGAATATG
B24: CACACA_negctrl_site1708 (dsDNA)
DNA 1: AAAACTTTTTTAACAGAAAAATAGGGATACAATATA
DNA 2: TATATTGTATCCCTATTTTTCTGTTAAAAAAGTTTT
B25: CACACA_negctrl_site189 (dsDNA)
DNA 1: AAGTTTATTATATATAAATTATTATATATATATATA
DNA 2: TATATATATATATAATAATTTATATATAATAAACTT
B26: CACACA_negctrl_site1450 (dsDNA)
DNA 1: ATATATTTTTAAAAAAATTAAGAATTTTACATCTCC
DNA 2: GGAGATGTAAAATTCTTAATTTTTTTAAAAATATAT
B27: CACACA_negctrl_site1546 (dsDNA)
DNA 1: TCATATATTCAAAAATTTAAAGTTAATAAAACTTGA
DNA 2: TCAAGTTTTATTAACTTTAAATTTTTGAATATATGA
B28: CACACA_negctrl_site1067 (dsDNA)
DNA 1: ATTATTTTATGAGACATAAAAAAAAAAAAAAAAAAA
DNA 2: TTTTTTTTTTTTTTTTTTTATGTCTCATAAAATAAT
B29: CACACA_negctrl_site699 (dsDNA)
DNA 1: TTTTATTTCAATCCACAAGGGATAAAATAAAGTTTT
DNA 2: AAAACTTTATTTTATCCCTTGTGGATTGAAATAAAA
B30: CACACA_negctrl_site1047 (dsDNA)
DNA 1: TTCACATGAAGAATTAAAATAAAACTAGGAAATTAA
DNA 2: TTAATTTCCTAGTTTTATTTTAATTCTTCATGTGAA
B31: CACACA_negctrl_site196 (dsDNA)
DNA 1: TTTTTAAATATATAATAGAATTGATTGTATTATATA
DNA 2: TATATAATACAATCAATTCTATTATATATTTAAAAA
B32: CACACA_negctrl_site1587 (dsDNA)
DNA 1: TTATAATATAAAAATAAATAAATAAATAAATAAATA
DNA 2: TATTTATTTATTTATTTATTTATTTTTATATTATAA
B33: CACACA_negctrl_site1820 (dsDNA)
DNA 1: AGAATTGTTGTTAAAGAATTCTTTTTTATCCTTCCC
DNA 2: GGGAAGGATAAAAAAGAATTCTTTAACAACAATTCT
B34: CACACA_negctrl_site1507 (dsDNA)
DNA 1: TCTTTAAATCGAGTGTTAAATAATATAATATAAAAA
DNA 2: TTTTTATATTATATTATTTAACACTCGATTTAAAGA
B35: CACACA_negctrl_site1225 (dsDNA)
DNA 1: ATTTTTTTTTTTTTTTTTTATATGCTCTCCATGAGA
DNA 2: TCTCATGGAGAGCATATAAAAAAAAAAAAAAAAAAT

The target of one series is T1, AP2-LT D1. The series can be described thus: gcPBM; about 25 ug protein; PBS, 1% milk, 0.2 mg/ml BSA, salmon testes DNA, 0.03% Triton X-100. Particulars: tags: N-terminal GST (pGEX-4T-1), kept; label: surface-attached array probe.
As to B1, the binding signal was 8.54 ln median PBM intensity, better of two orientations. The same measure, in the same setting: in the case of B2 it was 8.88 ln median PBM intensity, better of two orientations; in that of B3, 10.7 ln median PBM intensity, better of two orientations; in that of B4, 8.41 ln median PBM intensity, better of two orientations. Still for that read-out and setting: the same measure for B5: 10.7 ln median PBM intensity, better of two orientations; for B6: 8.18 ln median PBM intensity, better of two orientations; for B7: 11 ln median PBM intensity, better of two orientations. Consider B8, for which the binding signal was 8.66 ln median PBM intensity, better of two orientations. The same measure, in the same setting: the same measure for B9: 8.58 ln median PBM intensity, better of two orientations.

For the molecule B10, the binding signal is 8.87 ln median PBM intensity, better of two orientations. Take B11: the binding signal is 8.23 ln median PBM intensity, better of two orientations. On the same count and under the same terms, in the case of B12 it was 8.36 ln median PBM intensity, better of two orientations; in that of B13, 8.86 ln median PBM intensity, better of two orientations; in that of B14, 8.81 ln median PBM intensity, better of two orientations. Take B15: the binding signal is 10.7 ln median PBM intensity, better of two orientations.

As for B16, the binding signal was 8.87 ln median PBM intensity, better of two orientations. As to B17, the binding signal was 8.7 ln median PBM intensity, better of two orientations. On to B18, for which the binding signal is 8.51 ln median PBM intensity, better of two orientations. Still for that read-out and setting: in the case of B19 it was 8.88 ln median PBM intensity, better of two orientations; in that of B20, 8.54 ln median PBM intensity, better of two orientations; in that of B21, 8.88 ln median PBM intensity, better of two orientations. Still for that read-out and setting: the same measure for B22: 10.7 ln median PBM intensity, better of two orientations; for B23: 10.8 ln median PBM intensity, better of two orientations; for B24: 8.86 ln median PBM intensity, better of two orientations.

As to B25, the binding signal is 8.75 ln median PBM intensity, better of two orientations. The same measure, in the same setting: the same measure for B26: 8.56 ln median PBM intensity, better of two orientations; for B27: 8.35 ln median PBM intensity, better of two orientations; for B28: 8.39 ln median PBM intensity, better of two orientations. On to B29, for which the binding signal is 8.46 ln median PBM intensity, better of two orientations. As for B30, the binding signal is 8.81 ln median PBM intensity, better of two orientations. For B31, the binding signal was 8.6 ln median PBM intensity, better of two orientations. On the same count and under the same terms, in the case of B32 it was 8.74 ln median PBM intensity, better of two orientations; in that of B33, 8.88 ln median PBM intensity, better of two orientations.

For B34, the binding signal is 8.73 ln median PBM intensity, better of two orientations. Same read-out and setting: the same measure for B35: 8.79 ln median PBM intensity, better of two orientations.

Another series has as its target T2, PF3D7_0420300 D1. The series is described as above. The conditions noted are these: tags: N-terminal GST (pGEX-4T-1), kept; label: surface-attached array probe.
As to B1, the binding signal was 8.83 ln median PBM intensity, better of two orientations. As for B3, the binding signal was 10.6 ln median PBM intensity, better of two orientations. For B4, the binding signal is 8.08 ln median PBM intensity, better of two orientations.

As to B5, the binding signal is 10.7 ln median PBM intensity, better of two orientations. B6: the binding signal was 8.5 ln median PBM intensity, better of two orientations.

Take B7: the binding signal was 10.8 ln median PBM intensity, better of two orientations. Same read-out and setting: in the case of B8 it was 8.94 ln median PBM intensity, better of two orientations; in that of B9, 8.81 ln median PBM intensity, better of two orientations; in that of B11, 8.46 ln median PBM intensity, better of two orientations. Turning to B12, the binding signal was 8.79 ln median PBM intensity, better of two orientations.

For B14, the binding signal is 9.03 ln median PBM intensity, better of two orientations. Same read-out and setting: the same measure for B15: 10.6 ln median PBM intensity, better of two orientations; for B17: 8.92 ln median PBM intensity, better of two orientations; for B18: 8.97 ln median PBM intensity, better of two orientations. With B20, the binding signal was 8.27 ln median PBM intensity, better of two orientations.

For B22, the binding signal is 10.7 ln median PBM intensity, better of two orientations. B23: the binding signal is 11 ln median PBM intensity, better of two orientations. The same measure, in the same setting: in the case of B25 it was 9.02 ln median PBM intensity, better of two orientations; in that of B26, 8.78 ln median PBM intensity, better of two orientations. On the same count and under the same terms, in the case of B27 it was 8.61 ln median PBM intensity, better of two orientations. On the same count and under the same terms, the same measure for B28: 8.39 ln median PBM intensity, better of two orientations; for B29: 8.71 ln median PBM intensity, better of two orientations.

For B30, the binding signal was 9.06 ln median PBM intensity, better of two orientations. B31: the binding signal was 8.88 ln median PBM intensity, better of two orientations. On the same count and under the same terms, in the case of B32 it was 9.04 ln median PBM intensity, better of two orientations. In the case of B34, the binding signal is 9 ln median PBM intensity, better of two orientations.

In the case of B35, the binding signal is 8.86 ln median PBM intensity, better of two orientations.
